Laboratory results published in the nanobody polyreactivity screen of Harvey et al. (2022).

Assay: yeast display, Sf9 membrane polyspecificity reagent, FACS + sequencing; frameworks hold sequencing errors
Method in brief: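 A synthetic nanobody library was expressed on Saccharomyces cerevisiae BJ5465 by galactose induction for 36–48 hours. The library was stained for 1 hour at 4 °C with 10% biotinylated, detergent-solubilized Sf9 membrane reagent and enriched with streptavidin microbeads before FACS. Low and high (top ~1%) gates were set on anti-HA fluorescence for expression and streptavidin fluorescence for reagent binding, and each polyreactivity label reflects the gate of origin.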

Which “polyreactivity (PSR sort gate)” value does the source give for “QVQLVESGGGLVQAGGSLRLICAASGRIFVINAMGWYRQAPGKERELVAAITGGGSTNYADSVKGRFTISRDNAKNPVYLQMNSLKPEDTAVYYCAADYRPVRRFYYSRYDDWGQGTQVTVSS” here?
The value was “low polyreactivity”.

With “QVQLVESGGGLVQAGGSLRLSCAASGFIFYDYVMGWYRQAPGKERELVAAISASGGSTYYADSVKGRFTISRDNAKNTVYLQMNCLKPEDTAVYYCNARPKYDSGHYYWGQGTQVTVSS” as the sequence, how does the “polyreactivity (PSR sort gate)” value read?
The value was “high polyreactivity”.

Which “polyreactivity (PSR sort gate)” value does the source give for “QVQLVESGGGLVQAGGSLRLSCAASGFIFNSYAMGWYRPAPGKERELVAVISWSGGTTYYADSVKGRFTISRDNAKNTVFLQMNSLKPEDTAVYYCAASSYRSQYGYWGQGTQVTVSS” here?
The value was “high polyreactivity”.

With “QVQLVESGGGLVQAGGSLRLSCAASGSIFVWYDLGWYRQAPGKERELVATISLSGVSTYYADSVKGRFTISRDNAKNTVYLQMNSLKPEDTAVYYCAADFVEQGEDDYWGQGTQVTVSS” as the sequence, how does the “polyreactivity (PSR sort gate)” value read?
The value was “low polyreactivity”.

With “QVQLVESGGGLVQAGGSLRLSCAASGFTFGEYAMGWYRQAPGKEREFVAAISATGGSTYYADSVKGRFTISRDNAKNTVYLQMNSLKPEDTAVYYCAARDAYYDGYDYWGQGTQVTVSS” as the sequence, how does the “polyreactivity (PSR sort gate)” value read?
The value was “low polyreactivity”.

Which “polyreactivity (PSR sort gate)” value does the source give for “QVQLVESGGGLVQAGGSLRLSCAASGIIIRRYAMGWSRQAPGKERELVAAISWSGGSTYYADSVKGRFTISRDNAKNTVDLQMNSLKPEDTAVYYCAAAAYTRDEYDYWGQGTQVTVSS” here?
Its value is “high polyreactivity”.

For “QVQLVESGGGLVQAGGSLRLSCAASGSTFTIYAMGWYRQATGKERELVATIRAGGGRTSYADSVKGRFTISRDNAKNTVYLQMNSLKPEDTAVYYCAVYVRPTRYGYWGQGTQVTVSS”, which “polyreactivity (PSR sort gate)” value is on record?
Its value is “high polyreactivity”.

For “QVQLVESGGGLVQAGGSLRLSCAASGRTFVRYAMGWYSQAPGKERELVAAISGIATRTYYADSVKGRFTISRDNAKNTVYLQMNSLKPEDTAVYYCNALYAKYDYWGQGTQVTVSS”, which “polyreactivity (PSR sort gate)” value is on record?
Its value is “high polyreactivity”.

For “QVQLVESGGGLVQAGGSLRLSCAASGRIFPHYAMGWYRQAPGKERELVAAISSGGRTNYADSVKGRFTISRDNAKNTVYLQMNSLKPEDTAVYYCARRYPGGYYWGQGTQVTVSS”, which “polyreactivity (PSR sort gate)” value is on record?
The value was “high polyreactivity”.

Which “polyreactivity (PSR sort gate)” value does the source give for “QVQLVESGGGLVQAGGSLRLSCAASGSTFYGYAMGWYRQAPGKERELVAAISWRGGRTNYADSVKGRFTISRDNAKNTVYLQMNSLKPEDTAFYYCAARSYGITDYGMYSWGQGTQVTVSS” here?
The value was “high polyreactivity”.

With “QVQLQESGGGLMQAGGSLRLSCAASGNIFLGHTKGWYRQAPGNEREFVAGIARGGNPYNADSVKGRFTISRNNAKNTVYLQKNSLKAEDTAVHYCGVQRSHASDYNYWGQGTQVTVSS” as the sequence, how does the “polyreactivity (PSR sort gate)” value read?
The value was “low polyreactivity”.

For “QVQLVESGGGLVQAGGSLRLSCAASGFIFNYYAMGWYRQAPGKERELVAISRGGSTNYADSVKGRFTISRDNAKNTVYLQMNSLKPEDTAVYYCAATKRYASGMYYWGQGTQVTVSS”, which “polyreactivity (PSR sort gate)” value is on record?
The value was “high polyreactivity”.

With “QVQLVESGGGLVQAGGSLRLSCAASGRTFRVNSMGWYRPAPGKDRELVATIRWTGGSTYYADSVKGRFTISRDNAKNTVYLQMNSLKPEDTAVYYCAARIAVYHRGIGGYWGQGTQVTVSS” as the sequence, how does the “polyreactivity (PSR sort gate)” value read?
The value was “high polyreactivity”.

Which “polyreactivity (PSR sort gate)” value does the source give for “QVQLVESGGGLVQAGGSLRLICAASGRTFPGYAMGWYRPAPGKDRELVAAISNSGGRTYYADSVKGRFTISRDNAKKTVYLQMTSLKREDTAVYYCNATTDNGSNKRYYYWGQGTQVTVSS” here?
The value was “high polyreactivity”.

Which “polyreactivity (PSR sort gate)” value does the source give for “QVQLVESGGGLVQAGGSLRLSCAASGYTLYLNAMGWYRQAPGKERELFARISGGGSTNYADSVKGRFTISRDNAKNTVYLQMNSLKPEDTAVYYCAATIFAYGYRSFKLDYWGQGTQVTVSS” here?
Its value is “low polyreactivity”.

Which “polyreactivity (PSR sort gate)” value does the source give for “QVQLVESGGGLVQAGGSLRLSCAASGSTFVWNAMGWYRQAPGKERELVAAITSSGGSTYYADSVKGRFTISRDNAKNTVYLQMNSLKPEDTAVYYCAATGVNYRGLLGVAWGNNYWGQGTQVTVSS” here?
The value was “low polyreactivity”.

Which “polyreactivity (PSR sort gate)” value does the source give for “QVQLVESGGGLVQAGGSLRLSCAASGRTFYGNTMGWYIQAPGKERELVAAITRSGGSTYYADSVKGRFTISRDNAKNTVYFQMNSLKPEDTAVYYCAASRTYYAPYGYWGQGTQVTVSS” here?
The value was “high polyreactivity”.

For “QVQLVESGGGLVQAGGSLRLSCAPSGRTFGRYAMGWYRQAPGKERELVAAITRSGGSTYYADSVKGRFTISRDIAKNTVYLQMNSLKPEDTAVYYCNAGWRLGRGYWGQGTEVTVSS”, which “polyreactivity (PSR sort gate)” value is on record?
The value was “high polyreactivity”.

For “QVQLVESGGGLVQARRSLRLSCAASGITFVFYTMGWYRQAPGKERELVAAITSSGVRTSYADSVKGRFTISRDNAMNTVYLQMNSLKPEDTAVYYCAAKPTYVHKPGYNYWGQGTQVTVSS”, which “polyreactivity (PSR sort gate)” value is on record?
The value was “high polyreactivity”.

For “QVQLVESGGGLVQAGGSLRLSCAASGSTFNYYAMGWYRPAPGKERELVAAICSRSSRTFYADSVKGRFSISRDNEKNTVYLQMNSLKPEDTAVYYCAVKKRAPDGDYWGQGSQVTVSS”, which “polyreactivity (PSR sort gate)” value is on record?
The value was “high polyreactivity”.

With “QVQLVESGGGLVQAGCSLRLSCAASGRIFLVNAMGWYRQAPGKERELVAAISYRSGRTYYADSVKGRFTISRDNAKNTVYLQMNSLKPEDTAVYYCAAYTNVADMEYWGQGTQVTVSS” as the sequence, how does the “polyreactivity (PSR sort gate)” value read?
Its value is “high polyreactivity”.

With “QVQLVESGGGLVQAGGSLRLICAASGSIFLLYDMGWYRQAPGKERELVAAITWSGGSTYYADSVKGRFTISRDNAKNTVYLQMNSLKPEDTAVYYCAADEPYPTAYEYWGQGTQVTVSS” as the sequence, how does the “polyreactivity (PSR sort gate)” value read?
The value was “low polyreactivity”.

For “QVQLVESGGGLVQAGGSLRFSCAASGITFVDYAMGWYRQAPGKEREFVAGISESGGSTYYADSVKGRFTISRDNAKNTVYLQMNSLKPEDTAVYYCAADPYVDSYDSWGQGTQVTVSS”, which “polyreactivity (PSR sort gate)” value is on record?
The value was “low polyreactivity”.

For “QVQLVESGGGLVQAGGSLRLSCAASGFTFVSYAMGWYRQAPGKEREFVATISKRGGSTYYADSVKGRFTNSRDNAKNTVYLQMNSLKPEDTAVYYCAAARNVYRGRVYWGRYDYWGQGTQVTVSS”, which “polyreactivity (PSR sort gate)” value is on record?
Its value is “high polyreactivity”.

Which “polyreactivity (PSR sort gate)” value does the source give for “QDQLVESGGGLVQAGGSLRLSCAASGSIFTKYAMGLYRQAPGKEREFVAAIDVNGGSTRYADSVKGRFTISRDYANNTVYLQMYSLKPEDTAVYYCAKDYTASYYPQGLYDYWGQGTQVTVSS” here?
Its value is “low polyreactivity”.

Which “polyreactivity (PSR sort gate)” value does the source give for “QVQLVESGGGLVQAGGSLRLICAASGRIFEKYAMGWYRQEPGKERELVAAISSSGGSTYYADSVKGRFTISRDIAKNTVYLQMNSLKPDDTAVYYCAKLVVVPFYYWGQGTQVSVSS” here?
The value was “high polyreactivity”.

For “QVQLVESGGGLVQAGGSLRLSCAASGFTFARYAMGWYRQAPGKERELVAAITYSGSGTYYADSVKGRFTISRDNAKNTVYLQMNSLKPEDTAVYYCYPVTRSARSYDYWGQGTQVTVSS”, which “polyreactivity (PSR sort gate)” value is on record?
The value was “high polyreactivity”.

With “QVQLVESGGGLVQAGGSLRLSCAASGRIFRYYAMGWYRQAPGKERELVADIWSDGSTYYADSVKGRFTISRDNAKNTVYLQMNSLKPEDTAVYYCNAARTYYWYSAKFDYWGQGTQVTVSS” as the sequence, how does the “polyreactivity (PSR sort gate)” value read?
Its value is “high polyreactivity”.

For “QVQLVESGGGLVQAGGSLRLSCAASGRTFVVNAMGWYRQAPGKEREFVAAISYRGDSTYYADSVKGRFTISRDNAKNTVYLQMNSLKPEDTAVYYCAAQYRYGRYTRDYWGQGTQVTVSS”, which “polyreactivity (PSR sort gate)” value is on record?
The value was “high polyreactivity”.

Which “polyreactivity (PSR sort gate)” value does the source give for “QVQLGESGGGLVQAGGSLRLTCAASGITFGPYAMGWSRQAPGKERELVAAITWRGGSTYYADSVKGRFTISRDNAKNTVYLQMNSLKPEDTAVYYCNAKTEYGSPRGYGSWGQGTQVTVSS” here?
Its value is “low polyreactivity”.

Which “polyreactivity (PSR sort gate)” value does the source give for “QVQLVESGGGLVQAGGSLRLSCAASGGSSPNYAMGWYRQAPGKEREFVAGISRSGGSTYYADSVKGRFTISRDNAKNTVYLQMNSLKPEDTAVYVCAAARSRPYDYWGQGTQVTVSS” here?
Its value is “high polyreactivity”.

For “QVQLVESGGGLVQAGGSLRLSCAATGYIIQHYAMGWYRQSAGKERELVAAITSGGSTTYADSVKWRFTISRDNAKNTVFLQMNSLKPEDSAVYYCKALRRDRYTRKGYEYWGQGTQVTVSS”, which “polyreactivity (PSR sort gate)” value is on record?
The value was “high polyreactivity”.
